Biological target: human thrombopoietin receptor (hTPOR, genetic name MPL), on cells (human) (UniProt P40238)
Assay: cell-based or functional assay

EC50 of cell proliferation of BaF3/MPL cells: 1.3 ng/mL
Substance: recombinant human thrombopoietin (rhTPO) (from UniProt P40225 22-353) (ligand)

— US20240010736A1
